± gives the standard deviation of the averaged measurements.
B1: library; a variant is named by its letters at N, in order (parent)
chain: GCUGUCACCGGUGCUUGGUACGUUAUAUUCAGCCGGUCUGAUGAGUCUNNNNNNAGACGAAACAGC

Key:
(6R,S)-folinic acid [1] = variants of: B1; assay: normalized RNA/DNA level without ligand (relative to sTRSVctl = 100) (log10 (% of sTRSVctl)); HEK293T overexpressing SLC46A1; higher = less ribozyme self-cleavage, higher mRNA level; settings: without (6R,S)-folinic acid; ligand present: no
In short: (§1)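 Library plasmids carrying ribozyme switches linked to mCherry, or to eGFP in some ligand experiments, were transfected into HEK293T at 4 µg per 6-well well, with any ligand added 1 h earlier. Seventy-two hours on, total RNA was extracted with EDTA and reverse-transcribed, amplified, barcoded and sequenced. RNA level was RNA over DNA reads normalized to a spiked-in non-cleaving sequence or to the top sequences, then scaled and log-transformed. The top set was 25 sequences, the transform was ×100 and log10, and sequences needed ≥100 DNA reads.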

(6R,S)-folinic acid [2] = variants of: B1; assay: normalized RNA/DNA level with ligand (relative to sTRSVctl = 100) (log10 (% of sTRSVctl)); HEK293T overexpressing SLC46A1; ligand concentration (+) RNA-Seq: 6 mM; higher = less ribozyme self-cleavage, higher mRNA level; settings: with (6R,S)-folinic acid; ligand present: yes
In short: as §1

Variant | normalized RNA/DNA level without ligand (log10) ((6R,S)-folinic acid [1]) | normalized RNA/DNA level with ligand (log10) ((6R,S)-folinic acid [2])
UUGCCA | 2.024 ± 0.013 | 2.042 ± 0.02
UUGCCU | 2.07 ± 0.028 | 2.07 ± 0.024
UUGCCG | 1.974 ± 0.0045 | 2.03 ± 0.038
UUGCCC | 2.04 ± 0.031 | 2.03 ± 0.036
AUGUGA | 1.944 ± 0.014 | 2.014 ± 0.019
AUGUGC | 1.97 ± 0.021 | 1.981 ± 0.018
AUGUGU | 1.83 ± 0.032 | 1.97 ± 0.047
UUUAGG | 1.879 ± 0.012 | 2 ± 0.045
UUUAGA | 1.99 ± 0.02 | 2.03 ± 0.025
UUUAGU | 1.957 ± 0.0051 | 1.99 ± 0.015
UUUAGC | 1.998 ± 0.005 | 2 ± 0.044
AUGAAC | 1.95 ± 0.004 | 1.97 ± 0.048
AUCUUU | 2.07 ± 0.025 | 2.087 ± 0.017
AUCUUC | 2.07 ± 0.022 | 2.05 ± 0.045
CUGAGC | 2.0258 ± 0.00095 | 2.01 ± 0.019
CUGAGU | 2.052 ± 0.016 | 2.058 ± 0.015
CUGAGG | 1.948 ± 0.005 | 2.02 ± 0.029
CUGUUA | 1.994 ± 0.0099 | 2.04 ± 0.03
CUGUUG | 2.04 ± 0.035 | 2.03 ± 0.027
CUGUUU | 2.022 ± 0.0036 | 2.06 ± 0.041
CUGUUC | 2.049 ± 0.016 | 2.03 ± 0.024
CUUACU | 2 ± 0.023 | 2.02 ± 0.047
CUUACA | 2.004 ± 0.01 | 2 ± 0.022

Variant | normalized RNA/DNA level without ligand (log10) ((6R,S)-folinic acid [1]) | normalized RNA/DNA level with ligand (log10) ((6R,S)-folinic acid [2])
CUUACG | 2.007 ± 0.0022 | 2 ± 0.037
CUUACC | 2.022 ± 0.0014 | 1.995 ± 0.016
GUGAAC | 1.908 ± 0.0094 | 2.012 ± 0.0064
CUUAGA | 2.03 ± 0.01 | 2.04 ± 0.029
CUUAGU | 2.01 ± 0.0085 | 2.014 ± 0.0092
CUUAGG | 2.041 ± 0.018 | 2.052 ± 0.014
CUUAGC | 2.008 ± 0.019 | 2.01 ± 0.08
UUGGAC | 1.972 ± 0.015 | 1.98 ± 0.032
UUGGAU | 1.971 ± 0.012 | 2.022 ± 0.012
UUGUCU | 2.053 ± 0.0052 | 2.09 ± 0.022
UUGUCG | 1.94 ± 0.032 | 2.03 ± 0.034
UUGUCC | 2.008 ± 0.0064 | 2.045 ± 0.02
UUGUCA | 1.976 ± 0.015 | 2.042 ± 0.0095
UUGUUC | 2.056 ± 0.017 | 2.08 ± 0.047
UUGUUG | 1.96 ± 0.026 | 2.05 ± 0.027
UUGUUU | 2.065 ± 0.018 | 2.08 ± 0.035
UUGGCG | 1.8766 ± 0.00065 | 2.03 ± 0.062
UUGGCC | 2.046 ± 0.019 | 2.03 ± 0.05
UUGGCU | 2.055 ± 0.0023 | 2.04 ± 0.041
UUGGCA | 2.013 ± 0.011 | 2.06 ± 0.035
GUGCCU | 2.02 ± 0.024 | 1.98 ± 0.039
GUGCCC | 2.032 ± 0.012 | 2.02 ± 0.074
GUGCCA | 2.057 ± 0.015 | 2.006 ± 0.0095

Variant | normalized RNA/DNA level without ligand (log10) ((6R,S)-folinic acid [1]) | normalized RNA/DNA level with ligand (log10) ((6R,S)-folinic acid [2])
AUGAUA | 1.946 ± 0.017 | 2.002 ± 0.019
AUGAUC | 2.07 ± 0.028 | 2.06 ± 0.032
GUUACA | 2.009 ± 0.012 | 2.01 ± 0.053
GUUACU | 2.03 ± 0.027 | 2.03 ± 0.037
GUUACG | 1.988 ± 0.012 | 2.02 ± 0.034
UUGUGU | 2.03 ± 0.011 | 2.05 ± 0.031
UUGUGA | 1.96 ± 0.0028 | 2.04 ± 0.031
UUGUGG | 1.888 ± 0.0042 | 2.06 ± 0.044
UUGUGC | 2.018 ± 0.0046 | 2.053 ± 0.02
UUGAAC | 2 ± 0.023 | 2.025 ± 0.016
UUGAAU | 1.955 ± 0.0032 | 2.01 ± 0.025
CUGCAU | 1.9723 ± 0.001 | 1.99 ± 0.044
CUGCAC | 2.037 ± 0.0035 | 2.015 ± 0.014
CUGCAA | 2.037 ± 0.02 | 2.05 ± 0.025
GUGAUU | 2.01 ± 0.024 | 2.02 ± 0.022
GUGAUG | 1.908 ± 0.015 | 1.99 ± 0.035
GUGAUC | 2.03 ± 0.021 | 2.036 ± 0.02
CUGCUA | 2.02 ± 0.021 | 2.05 ± 0.031
CUGCUU | 2.046 ± 0.013 | 2.04 ± 0.03
CUGCUC | 2.11 ± 0.053 | 2.02 ± 0.034
CUGCUG | 2.044 ± 0.0052 | 2.03 ± 0.041
GUGUCU | 1.982 ± 0.0041 | 1.98 ± 0.045
GUGUCG | 2.006 ± 0.0093 | 2.06 ± 0.037

Variant | normalized RNA/DNA level without ligand (log10) ((6R,S)-folinic acid [1]) | normalized RNA/DNA level with ligand (log10) ((6R,S)-folinic acid [2])
GUGUCC | 1.97 ± 0.011 | 1.99 ± 0.034
GUGUUU | 2.03 ± 0.027 | 2.05 ± 0.036
GUGUUG | 1.9429 ± 0.0015 | 2.014 ± 0.015
GUGUUC | 2.01 ± 0.031 | 2.012 ± 0.0073
GUGUUA | 1.988 ± 0.015 | 2.01 ± 0.025
UUGCGA | 1.97 ± 0.022 | 2.02 ± 0.055
UUGCGC | 2.062 ± 0.007 | 2.079 ± 0.00078
UUGCGG | 1.96 ± 0.02 | 2 ± 0.031
UUGCGU | 1.98 ± 0.031 | 2.03 ± 0.032
GUGGAG | 1.86 ± 0.027 | 2 ± 0.041
GUGGAA | 1.915 ± 0.0022 | 2.01 ± 0.048
GUGGAU | 1.9394 ± 0.0013 | 2.01 ± 0.035
AUGUUG | 1.889 ± 0.01 | 2.017 ± 0.019
AUGUUU | 1.976 ± 0.015 | 2.004 ± 0.011
AUGUUA | 1.938 ± 1.9e-05 | 1.98 ± 0.057
AUGUUC | 2.0332 ± 0.0018 | 2.01 ± 0.021
UUGAGC | 2.006 ± 0.005 | 2.05 ± 0.049
UUGAGU | 1.925 ± 0.015 | 1.96 ± 0.025
AUGCAG | 1.92 ± 0.022 | 2 ± 0.032
AUGCAU | 1.934 ± 0.011 | 2.006 ± 0.005
CUGGGG | 1.871 ± 0.005 | 2.007 ± 0.0051
CUGGGU | 2.025 ± 0.02 | 2.032 ± 0.017
CUGGGC | 2.059 ± 0.0035 | 2.03 ± 0.03

Variant | normalized RNA/DNA level without ligand (log10) ((6R,S)-folinic acid [1]) | normalized RNA/DNA level with ligand (log10) ((6R,S)-folinic acid [2])
AUGGCC | 2.063 ± 0.0035 | 2.04 ± 0.05
AUGGCU | 1.989 ± 0.011 | 2.02 ± 0.031
AUGGCA | 1.9865 ± 2.8e-05 | 2 ± 0.046
GUGGGG | 1.94 ± 0.026 | 2.03 ± 0.028
GUGGGU | 1.98 ± 0.022 | 2 ± 0.045
CUGUAC | 1.992 ± 0.017 | 2.013 ± 0.013
CUGUAG | 1.925 ± 0.016 | 2.02 ± 0.041
CUGUAA | 1.958 ± 0.018 | 2.02 ± 0.037
UUGGUA | 1.92 ± 0.021 | 1.999 ± 0.014
UUGGUU | 2.014 ± 0.0096 | 2.052 ± 0.019
UUGGUC | 2.047 ± 0.0021 | 2.041 ± 0.003
GUUAGA | 2 ± 0.02 | 2.021 ± 0.0089
GUUAGC | 1.92 ± 0.025 | 1.99 ± 0.02
GUUAGU | 1.979 ± 0.0095 | 2.03 ± 0.044
AUGACC | 2.046 ± 0.0045 | 2.024 ± 0.014
AUGGAU | 1.889 ± 0.0038 | 2.01 ± 0.033
UUGGGC | 2.036 ± 0.0078 | 2.037 ± 0.0067
UUGGGA | 1.881 ± 0.0033 | 2.03 ± 0.039
GUGUAU | 1.962 ± 0.0048 | 2.01 ± 0.022
CUCUUU | 2.013 ± 0.011 | 2.02 ± 0.041
CUCUUC | 2.063 ± 0.0046 | 2.01 ± 0.024
CUCUUG | 2.04 ± 0.021 | 2.03 ± 0.028
AUUAUA | 1.9581 ± 0.0013 | 1.97 ± 0.025
